Assay results: the supplement of paper PMC9170038

Tested on: MS2 coat protein
Experiment: apparent KD of MS2 coat protein; designed switch direction (-1 OFF switch, 1 ON switch): -1; higher = weaker reporter binding
Method in brief: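 For each design, the apparent KD is the median over clusters of curves fitted to normalised cluster fluorescence. Clusters held RNA switches with common flanks, transcribed on Illumina chips by stalled E. coli RNA polymerase. These were titrated with SNAP-549-labelled MS2 coat protein, doubling from 0.7 or 1.5 nM to 3 µM, without input, with 200 uM small-molecule ligand, or with an oligonucleotide input.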

[1] = Eterna round: R95, input ligand: microRNA oligo, concentration not stated
[2] = input ligand: microRNA oligo, concentration not stated
[3] = Eterna round: R95, input ligand: FMN 200 uM
[4] = Eterna round: R95, input ligand: none

With “UGUGUGAGACAGGAUAUGCUGGAUGAAAGGCAGGUAGAAGGGUCUACAUGAGGAUCACCCAUGUGGCCGGUUGG [Ex6 #73] (Eterna round: R97, puzzle: Exclusion 6)” the “apparent KD of MS2 coat protein” value (input ligand: FMN 200 uM) was 20.6 nM and the “apparent KD of MS2 coat protein” value (input ligand: none) was 20.4 nM.

“UUCUUACGAGGAUAUCGAUUGUGGUACAUGAGGAUCACCCAUGUAUGUGAUAUUGUAUUUCGAGAAGGCGUUCAGU [JR_E5_Sub059] (puzzle: Exclusion 5)” was tested, and the “apparent KD of MS2 coat protein” value [1] was 25.2 nM.

“GCAGCGUAUGUAGGAUAUCGGUCAGUUUCUGAUCGAGAAGGACAUGAGGAUCACCCAUGUAAAUUACCGACUUUGUCGGGCUGC [JL ENG1 3.67] (Eterna round: R96, puzzle: Exclusion NG 1)” was tested, and the “apparent KD of MS2 coat protein” value (input ligand: FMN 200 uM) was 16.3 nM, the “apparent KD of MS2 coat protein” value [2] was 14.7 nM and the “apparent KD of MS2 coat protein” value (input ligand: none) was 16.3 nM.

In the case of “CGAUGAGGAGUGAGGAUAUCGUGUUCGAAAGAACGUGAGAAGGCACAUGAGGAUCACCCAUGUGAUCCUCAUCG [Omei Ex4B A21] (Eterna round: R97, puzzle: Brourd's mod of Exclusion 4)”, the “apparent KD of MS2 coat protein” value (input ligand: FMN 200 uM) is reported as 29.8 nM and the “apparent KD of MS2 coat protein” value (input ligand: none) is reported as 24.8 nM.

In the case of “ACAUGUUGCGCAGGAUAUGAGACACAUGAGGAUCACCCAUGUGGCUACAUGUCAUACCAAGCGUCUCAGAAGGGUGUUAACAUG [Ex NG2 #35] (Eterna round: R96, puzzle: Exclusion NG 2)”, the “apparent KD of MS2 coat protein” value (input ligand: FMN 200 uM) is reported as 23.5 nM, the “apparent KD of MS2 coat protein” value [2] is reported as 20.5 nM and the “apparent KD of MS2 coat protein” value (input ligand: none) is reported as 28.4 nM.

With “GCAUCCAAUGUGAGGAUAUACCUCUGGAUACAUAGGUAGAAGGCACAUGAGGAUCACCCAUGUCCUAAGGAUGC [Fiskers BMX 4 - 28] (puzzle: Brourd's mod of Exclusion 4)” the “apparent KD of MS2 coat protein” value [1] was 75 nM.

With “AUUGACUGAGGAUAUUGUGCUGCUGACAUGAGGAUCACCCAUGUAUGUUAACUCGGCCGUCGAGAAGGCAGAAAUG [BotMod 20 - Jieux - Exclusion 5] (Eterna round: R97, puzzle: Exclusion 5)” the “apparent KD of MS2 coat protein” value (input ligand: FMN 200 uM) was 22.6 nM and the “apparent KD of MS2 coat protein” value (input ligand: none) was 28.2 nM.

With “AACCAGCGAGGAUAUGCUUGCGCGUGUUCUAGUUGAAAUCGACUUGAGGAUCACCCAAGUAGAAGGCGCAGCCG [EX2 #48] (Eterna round: R97, puzzle: Exclusion 2)” the “apparent KD of MS2 coat protein” value (input ligand: FMN 200 uM) was 83.9 nM and the “apparent KD of MS2 coat protein” value (input ligand: none) was 43.9 nM.

“CUCCCUUCAGGAUAUACAUGAGGAUCACCCAUGUGUUCCAGCUAGGAAACUAGCAAAUGUAGAAGGGAAGGGAG [Mat - Exclusion 3 - JL Mod - D4] (Eterna round: R97, puzzle: Exclusion 3)” was tested, and the “apparent KD of MS2 coat protein” value (input ligand: FMN 200 uM) was 183 nM and the “apparent KD of MS2 coat protein” value (input ligand: none) was 90 nM.

With “GUAAUGUCCGAGGAUAUCCUUCUAAAUAUAUAUGGAGAAGGCGGUACAUGAGGAUCACCCAUGUCCAAAAUGGG [Parada] (Eterna round: R97, puzzle: Exclusion 6)” the “apparent KD of MS2 coat protein” value (input ligand: FMN 200 uM) was 229 nM and the “apparent KD of MS2 coat protein” value (input ligand: none) was 1680 nM.

For “AGAGUAGGCAUAGGAUAUCCGAAAGGAAGUGUAGGAGAAGGAUGUCGAGACAUGAGGAUCACCCAUGUGAUGCUUAGUCGAAAG [PowerStrip EXNG 1.18] (Eterna round: R96, puzzle: Exclusion NG 1)”, the “apparent KD of MS2 coat protein” value (input ligand: FMN 200 uM) was 359 nM, the “apparent KD of MS2 coat protein” value [2] was 61.1 nM and the “apparent KD of MS2 coat protein” value (input ligand: none) was 50.8 nM.

For “AAUUGCUAGCCGAUCCUCCACAUGAGGAUCACCCAUGUGCUUGUCUUGUAAUGUACUAUCACGAAAGUGAUAGUACA [Sensor v3, turn-off variant 1 (MOD of Eli's v1-59 v.5)] (puzzle: Sensor v3, turn-off variant 1)”, the “apparent KD of MS2 coat protein” value [3] was 44.7 nM, the “apparent KD of MS2 coat protein” value [1] was 54.7 nM and the “apparent KD of MS2 coat protein” value [4] was 43.2 nM.

With “GUCGAGUGAGGAUAUGGUGAGUAGUGCCUGAGCGCUGCUCACCAGAAGGCACAUGAGGAUCACCCAUGUAUAAC [Mat - Exclusion 4 - Mod of JL - D14] (puzzle: Exclusion 4)” the “apparent KD of MS2 coat protein” value [1] was 22.3 nM.

With “CAUACAGUAGUUAGGAUAUUGCAACACACACGGAACGAGAAGGGACAUGAGGAUCACCCAUGUAGACUGUAAAG [EX-4 Malc #6] (puzzle: Brourd's mod of Exclusion 4)” the “apparent KD of MS2 coat protein” value [3] was 20.7 nM, the “apparent KD of MS2 coat protein” value [1] was 27.2 nM and the “apparent KD of MS2 coat protein” value [4] was 24.5 nM.

“CAGUACUGAGGAUAUACAUGAGGAUCACCCAUGUGUUCCUGCUAGGAUACUAGCAAGGGUAGAAGGCAGUACUG [Mat - Exclusion 3 - Eli Mod - D4] (Eterna round: R97, puzzle: Exclusion 3)” was tested, and the “apparent KD of MS2 coat protein” value (input ligand: FMN 200 uM) was 59.4 nM and the “apparent KD of MS2 coat protein” value (input ligand: none) was 19.7 nM.

With “CAGGCUACAAACGCUCGUCACAUGAGGAUCACCCAUGUACGCCUCUAUCGUAAGUCCAGCGUUCGCUGGCAAGGGUA [Eternabot (Original) Solution 19] (Eterna round: R97, puzzle: Sensor, turn-off variant 1)” the “apparent KD of MS2 coat protein” value (input ligand: FMN 200 uM) was 47.5 nM and the “apparent KD of MS2 coat protein” value (input ligand: none) was 56.2 nM.

With “GAUGUGGGUUUCCGGAGUAACAUGAGGAUCACCCAUGUAGAAGUUGGAGGGAUAAUGCUUUUUGCUCGUUACACGUG [JR_SV3TOV1_Sub054] (puzzle: Sensor v3, turn-off variant 1)” the “apparent KD of MS2 coat protein” value [3] was 404 nM, the “apparent KD of MS2 coat protein” value [1] was 323 nM and the “apparent KD of MS2 coat protein” value [4] was 538 nM.

With “UAAGAUUACCGAGGAUAUGGUAAUUUUUAUUAACCAGAAGGCGGACUCAACAUGAGGAUCACCCAUGUAUAAAGGGUAUUAGUU [JR_ExcNG1_Sub039] (Eterna round: R96, puzzle: Exclusion NG 1)” the “apparent KD of MS2 coat protein” value (input ligand: FMN 200 uM) was 87.5 nM, the “apparent KD of MS2 coat protein” value [2] was 70.7 nM and the “apparent KD of MS2 coat protein” value (input ligand: none) was 98.7 nM.

With “GUACUAAGUGUGAGGAUAUCACAGGACGUUCACUAUGAGAAGGUACAUGAGGAUCACCCAUGUAUCGUGGGUCA [Eternabot (Original) Solution 7] (Eterna round: R97, puzzle: Brourd's mod of Exclusion 4)” the “apparent KD of MS2 coat protein” value (input ligand: FMN 200 uM) was 20.3 nM and the “apparent KD of MS2 coat protein” value (input ligand: none) was 17.7 nM.

In the case of “AGUAGUAGUAUCCGAUCCUACAUGAGGAUCACCCAUGUAGGUAGACGUGCACGCGAUGCUCGUCAGACUACCAGAUG [salish99_TOv1_r3_039] (puzzle: Sensor v3, turn-off variant 1)”, the “apparent KD of MS2 coat protein” value [3] is reported as 12.1 nM, the “apparent KD of MS2 coat protein” value [1] is reported as 11.4 nM and the “apparent KD of MS2 coat protein” value [4] is reported as 13.4 nM.

With “AUUGUUUAUGUAGGAUAUGCCUGGCGUGCCUUUGCAGAAGGACAUGAGGAUCACCCAUGUAACAUGAGGCUCACCCUUGUCGCA [salish99_ExNG1_r04_114] (Eterna round: R96, puzzle: Exclusion NG 1)” the “apparent KD of MS2 coat protein” value (input ligand: FMN 200 uM) was 147 nM, the “apparent KD of MS2 coat protein” value [2] was 81.4 nM and the “apparent KD of MS2 coat protein” value (input ligand: none) was 95.5 nM.

“UUUCGGCGGACCGUGGCUUUUUGCUCGUCUUAUGCUUCGACAUGAGGAUCACCCAUGUGGUGGUGGUCCGUUGUUGU [Grok-var2-12 mod JAL] (puzzle: Sensor v3, turn-off variant 2)” was tested, and the “apparent KD of MS2 coat protein” value [3] was 29.9 nM, the “apparent KD of MS2 coat protein” value [1] was 20.3 nM and the “apparent KD of MS2 coat protein” value [4] was 48.9 nM.

“GCCAGAGCAGGAUAUCUAAUAUAUCACAUGAGGAUCACCCAUGUCCAGCGAAAGCUGGAGGGAGAAGGGCUCUGGC [Fiskers Ex 5 - 19] (puzzle: Exclusion 5)” was tested, and the “apparent KD of MS2 coat protein” value [3] was 53.6 nM, the “apparent KD of MS2 coat protein” value [1] was 98.4 nM and the “apparent KD of MS2 coat protein” value [4] was 106 nM.

For “UUCUGGACAGGAUAUGUACUUGAGCACUUGAGGAUCACCCAAGUCGUCAAGUACUCAGGCACAGAAGGGUUAAUUU [jl-ex5.4.67 ViennaUCT mod] (Eterna round: R97, puzzle: Exclusion 5)”, the “apparent KD of MS2 coat protein” value (input ligand: FMN 200 uM) was 30.7 nM and the “apparent KD of MS2 coat protein” value (input ligand: none) was 15.3 nM.

In the case of “AAGCAGCGAGGAUAUGCUUGCGCGUGUUCUAGUUGAAAUAAACUUGAGGAUCACCCAAGUAGAAGGCGCAACCG [EX2 #44] (Eterna round: R97, puzzle: Exclusion 2)”, the “apparent KD of MS2 coat protein” value (input ligand: FMN 200 uM) is reported as 437 nM and the “apparent KD of MS2 coat protein” value (input ligand: none) is reported as 65.6 nM.

With “AAGAAACGAGGAUAUACAGUUGAGUGAGGGAUGUUAGUGUUACAUGAGGAUCACCCAUGUAGAAGGCGUGAGAG [JR_Exclu2_Sub091] (puzzle: Exclusion 2)” the “apparent KD of MS2 coat protein” value [3] was 66.4 nM, the “apparent KD of MS2 coat protein” value [1] was 32.2 nM and the “apparent KD of MS2 coat protein” value [4] was 36.2 nM.

“GGCAUAAACGAGGAUAUCGAUACGGAAACGUAUCGAGAAGGUGUAACAUGAGGAUCACCCAUGUUCCUCAAGCC [Mat - Exclusion 6 - Eli Mod - D60] (puzzle: Exclusion 6)” was tested, and the “apparent KD of MS2 coat protein” value [1] was 29.1 nM.

In the case of “CCGAGCAGACGGAGAUCCAACAUGAGGAUCACCCAUGUCUCAAAAGCUUUUUGCUUGUCUUAUUCUCCUCUGUUCUC [Qureorxe] (Eterna round: R96, puzzle: Sensor v3, turn-off variant 1)”, the “apparent KD of MS2 coat protein” value (input ligand: FMN 200 uM) is reported as 13 nM, the “apparent KD of MS2 coat protein” value [2] is reported as 29.6 nM and the “apparent KD of MS2 coat protein” value (input ligand: none) is reported as 15.6 nM.

In the case of “UCCCAGUGAGGAUAUACUUAUCGGGUCGGUUAGCGAGGAAAACUUGAGGAUCACCCAAGUAGAAGGCGCAACGU [Isinar] (Eterna round: R97, puzzle: Exclusion 2)”, the “apparent KD of MS2 coat protein” value (input ligand: FMN 200 uM) is reported as 35.1 nM and the “apparent KD of MS2 coat protein” value (input ligand: none) is reported as 29.6 nM.

With “UCGCUGCGAGGAUAUACAUGAGGAUCACCCAUGUACGGGUCCGGGUCUAAGUUGAUAAGUAGAAGGCGCAGUGA [JL Laongeedie mod 12] (puzzle: Exclusion 3)” the “apparent KD of MS2 coat protein” value [1] was 114 nM.

“CCAAGGGAGGAGGAUAUACCCGCCAAUUGGCUUGUAGAAGGCCUCACAUGAGGAUCACCCAUGUGGGACAAAAC [Eternabot (Original) Solution 21] (Eterna round: R97, puzzle: Exclusion 6)” was tested, and the “apparent KD of MS2 coat protein” value (input ligand: FMN 200 uM) was 22.8 nM and the “apparent KD of MS2 coat protein” value (input ligand: none) was 18.4 nM.

With “AUGGGUCCUCUCGGAGCGACAUGAGGAUCACCCAUGUGUGUUGAGGAUAUCCACUGCUCAGGACGGGAGAAGGCAGUGUACUGU [Ex NG3 #86] (Eterna round: R96, puzzle: Exclusion NG 3)” the “apparent KD of MS2 coat protein” value (input ligand: FMN 200 uM) was 55.9 nM, the “apparent KD of MS2 coat protein” value [2] was 32.5 nM and the “apparent KD of MS2 coat protein” value (input ligand: none) was 48.8 nM.

With “AUAAUGUCAGGAUAUCAGUCGUACAGCGAUAGCUGUACGACUGAGAAGGGACAUGAGGAUCACCCAUGUGGUCA [E4/6-A4] (Eterna round: R97, puzzle: Exclusion 4)” the “apparent KD of MS2 coat protein” value (input ligand: FMN 200 uM) was 13.3 nM and the “apparent KD of MS2 coat protein” value (input ligand: none) was 18.1 nM.
